Test results from PMC12486381 (Molecular Biology and Evolution, 2025).
Values joined by “and” are separate entries in the source; they are usually repeats but may differ in a detail not shown here. Identical values can stand only once. Like-named read-outs stand apart in the source and are kept apart here. Values belong to the compound of their own block, whether it stands above or below them.

What was measured:
DfrB homolog A0A5E7Z8W7 = test: SEC
DfrB homolog A0A1R3X8F5 = test: SEC
[1] = molecular target: DfrB1 (type B dihydrofolate reductase 1); test: SEC
DfrB homolog E2SFM2 = test: SEC
A0A839U7A6 = test: initial rate of NADPH and DHF depletion at […] nm, Michaelis-Menten fit; format: biochemical, Phyllobacterium trifolii; settings: 50 mM potassium phosphate pH 7, 27 °C
BBD029md-00326_13692 = test: as above; format: biochemical; settings: 50 mM potassium phosphate pH 7, 27 °C
A0A0N7CEH1 = test: as above; format: biochemical, Skermania phage SPI1; settings: 50 mM potassium phosphate pH 7, 27 °C
UPI001402A2DF = test: as above; format: biochemical; settings: 50 mM potassium phosphate pH 7, 27 °C
A0A5E7Z8W7 = test: as above; format: biochemical, Hoeflea sp. EC-HK425; settings: 50 mM potassium phosphate pH 7, 27 °C
DfrB homolog A0A0N7CEH1 = test: SEC
[2] = tested on: DfrB-TS (BBD027md-00173_03685); test: initial rate of NADPH and DHF depletion at […] nm, Michaelis-Menten fit; format: biochemical; settings: read-out: K M ^DHF; DfrB domain; 50 µM NADPH, 50 mM potassium phosphate pH 7, 27 °C
DfrB homolog A0A1M7UVF4 = test: SEC
[3] = molecular target: DfrB homolog BBD029md-00326_13692; test: SEC
[4] = molecular target: DfrB homolog UPI001402A2DF; test: SEC
DfrB homolog A0A345GTK3 = test: SEC
[5] = molecular target: DfrB-TS (BBD027md-00173_03685); test: SEC
DfrB homolog A0A839U7A6 = test: SEC
DfrB homolog A0A6J5PTB3 = test: SEC
[6] = read-out: K M ^NADPH, 50 µM DHF
[7] = read-out: K M ^DHF, 50 µM NADPH

DfrB1 (type B dihydrofolate reductase 1), sequence (P00383 whole entry): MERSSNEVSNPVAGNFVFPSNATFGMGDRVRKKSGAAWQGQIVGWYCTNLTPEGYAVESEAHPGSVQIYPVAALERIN

stoichiometry N (DfrB homolog A0A5E7Z8W7): 4
Compound: DfrB homolog A0A5E7Z8W7 (enzyme)

stoichiometry N (DfrB homolog A0A1R3X8F5): 4
Compound: DfrB homolog A0A1R3X8F5 (natural protein)

Compound: DfrB1 (type B dihydrofolate reductase 1) (enzyme)
stoichiometry N [1]: 4

stoichiometry N (DfrB homolog E2SFM2): 4
Compound: DfrB homolog E2SFM2 (natural protein)

Km (A0A839U7A6; [6]): 10 ± 5 µM
Km (BBD029md-00326_13692; [6]): 20 ± 10 µM
Km (A0A0N7CEH1; [6]): 5.7 ± 0.6 µM
Km (UPI001402A2DF; [6]): 11 ± 1 µM
Km (A0A5E7Z8W7; [6]): 18 ± 2 µM
Compound: NC(=O)C1=CN([C@@H]2O[C@H](COP(=O)(O)OP(=O)(O)OC[C@H]3O[C@@H](n4cnc5c(N)ncnc54)[C@H](OP(=O)(O)O)[C@@H]3O)[C@@H](O)[C@H]2O)C=CC1 [NADPH]

stoichiometry N (DfrB homolog A0A0N7CEH1): 4
Compound: DfrB homolog A0A0N7CEH1 (enzyme)

Km (A0A839U7A6; [7]): 44 ± 5 µM
Km (BBD029md-00326_13692; [7]): 36 ± 4 µM
Km (A0A0N7CEH1; [7]): 6 ± 2 µM
Km (UPI001402A2DF; [7]): 130 ± 20 µM
Km (A0A5E7Z8W7; [7]): 7 ± 4 µM
Km [2]: 28 ± 3 µM
Compound: Nc1nc2c(c(=O)[nH]1)N=C(CNc1ccc(C(=O)N[C@@H](CCC(=O)O)C(=O)O)cc1)CN2 [DHF]

stoichiometry N (DfrB homolog A0A1M7UVF4): 2
Compound: DfrB homolog A0A1M7UVF4 (natural protein)

stoichiometry N [3]: 4
Compound: DfrB homolog BBD029md-00326_13692 (enzyme)

stoichiometry N [4]: 4
Compound: DfrB homolog UPI001402A2DF (enzyme)

stoichiometry N (DfrB homolog A0A345GTK3): 2
Compound: DfrB homolog A0A345GTK3 (natural protein)

Compound: DfrB-TS (BBD027md-00173_03685) (enzyme)
stoichiometry N [5]: 4 and 8

stoichiometry N (DfrB homolog A0A839U7A6): 4
Compound: DfrB homolog A0A839U7A6 (enzyme)

stoichiometry N (DfrB homolog A0A6J5PTB3): 4
Compound: DfrB homolog A0A6J5PTB3 (enzyme)
